Source: patent US20080058263A1 (published 2008)
Positions count from the first letter of the chain named.

T1: VEGFR-3-Fc (UniProt P35916 25-328)
T1 construct: domain: first three Ig domains; conditioned supernatant of 293T cells; also called VEGFR-3-Fc fusion protein; not shown: Fc fragment of the pIg vector
T1 sequence (looked up): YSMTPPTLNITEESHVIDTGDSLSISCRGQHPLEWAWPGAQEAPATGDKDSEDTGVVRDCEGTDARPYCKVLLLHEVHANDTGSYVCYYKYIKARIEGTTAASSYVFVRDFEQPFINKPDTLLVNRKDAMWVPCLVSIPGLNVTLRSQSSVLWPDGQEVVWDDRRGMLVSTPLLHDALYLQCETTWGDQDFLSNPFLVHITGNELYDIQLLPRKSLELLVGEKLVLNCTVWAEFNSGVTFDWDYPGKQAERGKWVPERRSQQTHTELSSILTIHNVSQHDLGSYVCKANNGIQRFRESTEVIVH

B1: 21-11 (ligand)
chain: AHYNTEILKSIDNEWRKTQCMPREVCIDVGKEYPDEIEYIFKPSCVPLMRCGGCCNSEGLQCVPTEESNITMQIMRITVPLSQGPKPVTISFLQHNKCECRPKKD
B2: 31-11 (ligand)
chain: GQNHHEVVKSIDNEWRKTQCMPIETLVDIFQEYPDEIEYIFKPSCVPLMRCGGCCNSEGLQCVPTEESNITMQIMRITVPLSQGPKPVTISFLQHNKCECRPKKD
B3: 71-15 (ligand)
chain: GQNHHEVVKSIDNEWRKTQCMPREVCIDVGKEYPDEIEYIFKPSCVPLMRCGGCCNSEGLQCVPTEESNITMQIMRITVPLSQGPKPVTISFANHTSCRCMSKLD
B4: 23-11 (ligand)
chain: B1 chain with S44P, P47S, L48V, M49Y
B5: 31-3 (ligand)
chain: B2 chain with S57D, Q61E
B6: 33-11 (ligand)
chain: B2 chain with S44P, P47S, L48V, M49Y
B7: 73-15 (ligand)
chain: B3 chain with S44P, P47S, L48V, M49Y
B8: 71-13 (ligand)
chain: B3 chain with S57D, Q61E
B9: 74-11 (ligand)
chain: GQNHHEVVKSIDNEWRKTQCMPREVCIDVGKEFGVATNTFFKPSCVPLMRCGGCCNSEGLQCVPTEESNITMQIMRITVPLSQGPKPVTISFLQHNKCECRPKKD
B10: 82-5 (ligand)
chain: AHYNTEILKFMDVYQRSYCHPIETLVDIFQEFGVATNTFFKPPCVSVYRCGGCCNDEGLECVPTEESNITMQIMRIKPHQGQHIGEMSFANHTSCRCMSKLD
B11: 74-10 (ligand)
chain: GQNHHEVVKSIDNEWRKTQCMPREVCIDVGKEFGVATNTFFKPSCVPLMRCGGCCNDEGLECMNTSTSYLSKTLFEITVPLSQGPKPVTISFLQHNKCECRPKKD
B12: 74-12 (ligand)
chain: B11 chain with D57S, E61Q
B13: 74-8 (ligand)
chain: GQNHHEVVKSIDNEWRKTQCMPREVCIDVGKEFGVATNTFFKPSCVPLMRCGGCCNSEGLQCMNTSTSYLSKTLFEIKPHQGQHIGEMSFANHTSCRCMSKLD

These binders were tested against T2, VEGFR-2-Fc (UniProt P35968 20-322) (assay: receptor-Fc IP).
T2 construct: domain: first 3 Ig domains; conditioned supernatant of 293T cells; also called VEGFR-2-Fc fusion protein; not shown: Fc fragment of the pIg vector
In short: (§1)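 fusion protein at 400 ng/ml in an IP mix (PBS, 1.5% BSA, 0.06% Tween 20, 3 μg/ml heparin) was combined with sample supernatant at a 1:2 ratio. Bound ligand captured by immunoprecipitation with pentahistidine antibody.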

T2 sequence (P35968 20-322): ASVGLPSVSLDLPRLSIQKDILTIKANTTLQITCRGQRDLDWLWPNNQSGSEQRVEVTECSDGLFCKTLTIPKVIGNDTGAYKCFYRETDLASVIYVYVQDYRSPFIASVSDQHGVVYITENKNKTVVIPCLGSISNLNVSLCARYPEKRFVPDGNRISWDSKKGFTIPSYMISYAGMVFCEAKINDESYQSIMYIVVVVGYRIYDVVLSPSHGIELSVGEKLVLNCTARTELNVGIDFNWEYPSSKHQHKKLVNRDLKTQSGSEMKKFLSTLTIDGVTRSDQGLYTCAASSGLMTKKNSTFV

binding result | Binder
no binding | B1
no binding | B2
no binding | B3
no binding | B4
no binding | B5
no binding | B6
binds | B7
no binding | B8
no binding | B9
no binding | B10
binds | B11
binds | B12
binds | B13

These binders were tested against T1, VEGFR-3-Fc (assay: receptor-Fc IP).
In short: as §1

binding result | Binder
no binding | B1
no binding | B2
no binding | B3
no binding | B4
no binding | B5
no binding | B6
no binding | B7
no binding | B8
no binding | B9
no binding | B10
no binding | B11
no binding | B12
no binding | B13

Each binder was assayed against T3, VEGFR-1-Fc (UniProt P17948 27-338) (assay: receptor-Fc IP).
T3 construct: domain: first three Ig domains; expressed in Drosophila S2 cells, purified on Protein A sepharose; also called VEGFR-1-Fc fusion protein; not shown: Fc fragment from the Signal-pIgPlus vector
In short: as §1

T3 sequence (P17948 27-338): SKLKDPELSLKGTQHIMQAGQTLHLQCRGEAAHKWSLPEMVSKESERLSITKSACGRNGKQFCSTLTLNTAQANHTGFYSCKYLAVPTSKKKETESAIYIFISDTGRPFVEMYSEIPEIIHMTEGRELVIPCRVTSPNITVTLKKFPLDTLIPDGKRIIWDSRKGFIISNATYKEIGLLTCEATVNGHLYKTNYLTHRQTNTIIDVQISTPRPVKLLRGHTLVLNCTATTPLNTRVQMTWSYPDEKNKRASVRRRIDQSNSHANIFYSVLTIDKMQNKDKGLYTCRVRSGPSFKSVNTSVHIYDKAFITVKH

binding result | Binder
no binding | B1
no binding | B2
no binding | B3
no binding | B4
no binding | B5
no binding | B6
no binding | B7
no binding | B8
no binding | B9
binds | B10
no binding | B11
no binding | B12
no binding | B13
